# From PMC6565636, “Rif1 promotes association of G-quadruplex (G4) by its specific G4 binding and oligomerization activities”
# B1: Taz1BS (dsDNA)
# DNA 1: TTACAGGTTACAGGTTACAGG
# DNA 2: CCTGTAACCTGTAACCTGTAA
# Legend:
# [1] = target: T1, Rif1 full-length (His6-Rif1-FLAG3) (Schizosaccharomyces pombe (fission …, UniProt Q96UP3 1-1400)); experiment: EMSA; as efficient as or slightly better than AGTGn; EMSA with oligos heat-denatured and renatured in 50 mM KCl/40% PEG200 (Fig 5: 50 mM Tris-HCl pH 7.5 with KCl, NaCl or none); gel shift buffer 40 mM Hepes-KOH pH 7.6, 50 mM KCl, 1 mM EDTA, 10% glycerol, 0.01% Triton X-100; pull-down 30 min at room temperature; +++/++/+ = >50/>16/>6% shift at 1 nM Rif1; settings: protein: recombinant, tags: N-term His6, C-term FLAG3, label: 32P
# T1 sequence: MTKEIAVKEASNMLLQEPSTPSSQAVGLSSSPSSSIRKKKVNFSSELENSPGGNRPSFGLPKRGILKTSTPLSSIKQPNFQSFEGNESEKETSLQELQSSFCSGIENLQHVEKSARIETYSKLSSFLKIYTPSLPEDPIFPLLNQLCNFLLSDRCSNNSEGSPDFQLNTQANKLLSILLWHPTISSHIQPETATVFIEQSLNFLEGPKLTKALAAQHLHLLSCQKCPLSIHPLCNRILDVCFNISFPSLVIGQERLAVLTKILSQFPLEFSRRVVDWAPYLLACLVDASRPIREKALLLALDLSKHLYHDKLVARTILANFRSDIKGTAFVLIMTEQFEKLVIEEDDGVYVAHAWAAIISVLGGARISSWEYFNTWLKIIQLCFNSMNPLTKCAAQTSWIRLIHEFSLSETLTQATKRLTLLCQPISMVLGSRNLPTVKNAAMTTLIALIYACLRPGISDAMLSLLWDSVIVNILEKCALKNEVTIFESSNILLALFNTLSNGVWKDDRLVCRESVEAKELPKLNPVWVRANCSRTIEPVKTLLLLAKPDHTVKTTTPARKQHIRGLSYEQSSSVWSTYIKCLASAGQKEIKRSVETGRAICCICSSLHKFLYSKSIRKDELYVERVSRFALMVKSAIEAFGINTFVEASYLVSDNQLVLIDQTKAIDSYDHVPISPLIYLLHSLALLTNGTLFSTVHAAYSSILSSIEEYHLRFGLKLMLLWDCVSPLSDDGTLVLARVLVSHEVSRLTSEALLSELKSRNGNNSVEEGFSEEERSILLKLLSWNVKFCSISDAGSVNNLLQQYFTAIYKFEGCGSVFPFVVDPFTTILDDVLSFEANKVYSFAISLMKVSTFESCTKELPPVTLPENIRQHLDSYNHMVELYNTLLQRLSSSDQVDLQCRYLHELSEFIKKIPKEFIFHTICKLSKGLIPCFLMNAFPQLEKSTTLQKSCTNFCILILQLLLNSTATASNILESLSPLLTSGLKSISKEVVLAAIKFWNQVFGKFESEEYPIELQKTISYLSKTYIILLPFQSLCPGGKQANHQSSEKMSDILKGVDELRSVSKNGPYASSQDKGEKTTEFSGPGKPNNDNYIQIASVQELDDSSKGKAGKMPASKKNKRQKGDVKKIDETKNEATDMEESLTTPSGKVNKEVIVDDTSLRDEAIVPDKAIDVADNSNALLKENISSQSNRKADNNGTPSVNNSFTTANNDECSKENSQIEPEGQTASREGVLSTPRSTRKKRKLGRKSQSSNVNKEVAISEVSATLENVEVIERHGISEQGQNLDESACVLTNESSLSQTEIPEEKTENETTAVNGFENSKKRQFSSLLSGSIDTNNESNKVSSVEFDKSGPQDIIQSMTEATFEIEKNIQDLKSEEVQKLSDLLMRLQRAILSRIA
# [2] = target: T1, Rif1 full-length (His6-Rif1-FLAG3); experiment: EMSA; KCl; EMSA with oligos heat-denatured and renatured in 50 mM KCl/40% PEG200 (Fig 5: 50 mM Tris-HCl pH 7.5 with KCl, NaCl or none); gel shift buffer 40 mM Hepes-KOH pH 7.6, 50 mM KCl, 1 mM EDTA, 10% glycerol, 0.01% Triton X-100; pull-down 30 min at room temperature; +++/++/+ = >50/>16/>6% shift at 1 nM Rif1; settings: protein: recombinant, tags: N-term His6, C-term FLAG3, label: 32P
# [3] = target: T1, Rif1 full-length (His6-Rif1-FLAG3); experiment: EMSA; KCl; three repeats most efficient; EMSA with oligos heat-denatured and renatured in 50 mM KCl/40% PEG200 (Fig 5: 50 mM Tris-HCl pH 7.5 with KCl, NaCl or none); gel shift buffer 40 mM Hepes-KOH pH 7.6, 50 mM KCl, 1 mM EDTA, 10% glycerol, 0.01% Triton X-100; pull-down 30 min at room temperature; +++/++/+ = >50/>16/>6% shift at 1 nM Rif1; settings: protein: recombinant; tags: N-term His6, C-term FLAG3; label: 32P
# Taz1 = target: T2, Taz1 (Schizosaccharomyces pombe (fission …, UniProt P79005 1-663)); experiment: EMSA; EMSA with oligos heat-denatured and renatured in 50 mM KCl/40% PEG200 (Fig 5: 50 mM Tris-HCl pH 7.5 with KCl, NaCl or none); gel shift buffer 40 mM Hepes-KOH pH 7.6, 50 mM KCl, 1 mM EDTA, 10% glycerol, 0.01% Triton X-100; pull-down 30 min at room temperature; +++/++/+ = >50/>16/>6% shift at 1 nM Rif1; settings: protein: recombinant; tags: N-term His6, C-term FLAG3; chain copies: 2; label: 32P; blunt
# T2 sequence: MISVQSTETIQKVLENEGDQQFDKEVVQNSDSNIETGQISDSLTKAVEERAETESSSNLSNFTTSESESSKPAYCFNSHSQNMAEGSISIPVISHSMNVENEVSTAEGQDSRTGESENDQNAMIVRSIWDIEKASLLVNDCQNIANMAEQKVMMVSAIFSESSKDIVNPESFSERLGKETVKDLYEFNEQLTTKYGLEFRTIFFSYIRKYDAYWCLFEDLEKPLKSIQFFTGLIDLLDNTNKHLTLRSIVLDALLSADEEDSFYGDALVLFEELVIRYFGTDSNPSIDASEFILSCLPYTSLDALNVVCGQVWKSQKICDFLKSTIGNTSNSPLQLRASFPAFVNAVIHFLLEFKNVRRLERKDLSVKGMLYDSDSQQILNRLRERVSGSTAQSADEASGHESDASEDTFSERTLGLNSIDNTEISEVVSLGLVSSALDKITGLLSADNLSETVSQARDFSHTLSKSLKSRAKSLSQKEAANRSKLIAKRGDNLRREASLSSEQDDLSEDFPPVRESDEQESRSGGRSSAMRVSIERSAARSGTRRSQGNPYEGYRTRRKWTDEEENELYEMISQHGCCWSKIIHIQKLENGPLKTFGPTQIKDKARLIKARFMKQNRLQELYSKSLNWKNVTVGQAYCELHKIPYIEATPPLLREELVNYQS
# [4] = target: T1, Rif1 full-length (His6-Rif1-FLAG3); experiment: EMSA; KCl; text: poor binder; EMSA with oligos heat-denatured and renatured in 50 mM KCl/40% PEG200 (Fig 5: 50 mM Tris-HCl pH 7.5 with KCl, NaCl or none); gel shift buffer 40 mM Hepes-KOH pH 7.6, 50 mM KCl, 1 mM EDTA, 10% glycerol, 0.01% Triton X-100; pull-down 30 min at room temperature; +++/++/+ = >50/>16/>6% shift at 1 nM Rif1; settings: protein: recombinant; tags: N-term His6, C-term FLAG3; label: 32P; hybrid G4
# [5] = target: T1, Rif1 full-length (His6-Rif1-FLAG3); experiment: EMSA; EMSA with oligos heat-denatured and renatured in 50 mM KCl/40% PEG200 (Fig 5: 50 mM Tris-HCl pH 7.5 with KCl, NaCl or none); gel shift buffer 40 mM Hepes-KOH pH 7.6, 50 mM KCl, 1 mM EDTA, 10% glycerol, 0.01% Triton X-100; pull-down 30 min at room temperature; +++/++/+ = >50/>16/>6% shift at 1 nM Rif1; settings: protein: recombinant; tags: N-term His6, C-term FLAG3; label: 32P
# [6] = target: T1, Rif1 full-length (His6-Rif1-FLAG3); experiment: EMSA; KCl; text: not bound very efficiently; EMSA with oligos heat-denatured and renatured in 50 mM KCl/40% PEG200 (Fig 5: 50 mM Tris-HCl pH 7.5 with KCl, NaCl or none); gel shift buffer 40 mM Hepes-KOH pH 7.6, 50 mM KCl, 1 mM EDTA, 10% glycerol, 0.01% Triton X-100; pull-down 30 min at room temperature; +++/++/+ = >50/>16/>6% shift at 1 nM Rif1; settings: protein: recombinant; tags: N-term His6, C-term FLAG3; label: 32P; hybrid G4
binder,measurement,setting,value
ACAGGGGG (structured_DNA),binding result,[1]; slow-migrating multimers,binds
ACAGGGG (structured_DNA),binding result,[1],binds
AGTGGGGGAGTGGGGGAGTGGGGGAGTGGGGG (structured_DNA) [(AGTGGGGG)4],binding result,[2],binds
AGTGGGAGTGGGAGTGGG (structured_DNA) [(AGTGGG)3],binding result,[3],binds
AGTGGGGAGTGGGGAGTGGGG (structured_DNA) [(AGTGGGG)3],binding result,[3],binds
TTGGGTTAGGGTTAGGGTTAGGGA (structured_DNA) [HT],binding result,[2]; hybrid G4,no binding
B1,Kd,Taz1,~30 nM
TAGGGTTAGGGTTAGGGTTAGGGTT (structured_DNA) [Htelo2],binding result,[4],no binding
GGGGGGGGGG (structured_DNA) [G10],binding result,[5],binds
ACAGGGGGACAGGGGGACAGGGGG (structured_DNA) [(ACAGGGGG)3],binding result,[1],binds
AGTGGGGGAGTGGGGGAGTGGGGG (structured_DNA) [(AGTGGGGG)3],binding result,[3],binds
GGGGTGGGAGGAGGGT (structured_DNA) [93del],binding result,[2]; parallel G4 (dimeric),binds
ACAGGGGACAGGGGACAGGGG (structured_DNA) [(ACAGGGG)3],binding result,[1],binds
TAGGGTTAGGGTTAGGGTTAGGG (structured_DNA) [Htelo1],binding result,[6],no binding
